B1: MYT1604 (antibody, V domains shown)
VH: EVQLVQSGAEVKKPGSSVKVSCKASGYTITDSNIHWVRQAPGQSLEWIGYIYPYNGGTDYNQKFKNRATLTVDNPTNTAYMELSSLRSEDTDFYYCVNGNPWLAYWGQGTLVTVSS
VL: DIQLTQSPSTLSASVGDRVTITCRASESLDNYGIRFLHWFQQKPGKAPKLLMYAASNQGSGVPSRFSGSGSGTEFTLTISSLQPDDFATYYCQQTKEVPWSFGQGTKVEVK
notes: IgG; gemtuzumab VL variant #15 (T38H)
B2: MYT1607 (antibody, V domains shown)
VH: EVQLVQSGAEVKKPGSSVKVSCKASGYTITDSNIHWVRQAPGQSLEWIGYIYPYNGGTDYNQKFKNRATLTVDNPTNTAYMELSSLRSEDTDFYYCVNGNPWLAYWGQGTLVTVSS
VL: DIQLTQSPSTLSASVGDRVTITCRASESLDNYGIRFLTWFQQKPGKAPKLLMYAAHNQGSGVPSRFSGSGSGTEFTLTISSLQPDDFATYYCQQTKEVPWSFGQGTKVEVK
notes: IgG; gemtuzumab VL variant #18 (S56H)
B3: MYT1614 (antibody, V domains shown)
VH: EVQLVQSGAEVKKPGSSVKVSCKASGYTITDSNIHWVRQAPGQSLEWIGYIYPYNGGTDYNQKFKNRATLTVDNPTNTAYMELSSLRSEDTDFYYCVNGNPWLAYWGQGTLVTVSS
VL: DIQLTQSPSTLSASVGDRVTITCRASESLDNYGIRFLTWFQQKPGKAPKLLMYAASNQGSGVPSRFSGSGSGTEFTLTISSLQPDDFATYYCQQHKEVPWSFGQGTKVEVK
notes: IgG; gemtuzumab VL variant #25 (T95H)
B4: MYT1605 (antibody, V domains shown)
VH: EVQLVQSGAEVKKPGSSVKVSCKASGYTITDSNIHWVRQAPGQSLEWIGYIYPYNGGTDYNQKFKNRATLTVDNPTNTAYMELSSLRSEDTDFYYCVNGNPWLAYWGQGTLVTVSS
VL: DIQLTQSPSTLSASVGDRVTITCRASESLDNYGIRFLTWFQQKPGKAPKLLMYHASNQGSGVPSRFSGSGSGTEFTLTISSLQPDDFATYYCQQTKEVPWSFGQGTKVEVK
notes: IgG; gemtuzumab VL variant #16 (A54H)
B5: MYT1617 (antibody, V domains shown)
VH: EVQLVQSGAEVKKPGSSVKVSCKASGYTITDSNIHWVRQAPGQSLEWIGYIYPYNGGTDYNQKFKNRATLTVDNPTNTAYMELSSLRSEDTDFYYCVNGNPWLAYWGQGTLVTVSS
VL: DIQLTQSPSTLSASVGDRVTITCRASESLDNYGIRFLTWFQQKPGKAPKLLMYAASNQGSGVPSRFSGSGSGTEFTLTISSLQPDDFATYYCQQTKEHPWSFGQGTKVEVK
notes: IgG; gemtuzumab VL variant #28 (V98H)
B6: MYT1606 (antibody, V domains shown)
VH: EVQLVQSGAEVKKPGSSVKVSCKASGYTITDSNIHWVRQAPGQSLEWIGYIYPYNGGTDYNQKFKNRATLTVDNPTNTAYMELSSLRSEDTDFYYCVNGNPWLAYWGQGTLVTVSS
VL: DIQLTQSPSTLSASVGDRVTITCRASESLDNYGIRFLTWFQQKPGKAPKLLMYAHSNQGSGVPSRFSGSGSGTEFTLTISSLQPDDFATYYCQQTKEVPWSFGQGTKVEVK
notes: IgG; gemtuzumab VL variant #17 (A55H)
B7: MYT1609 (antibody, V domains shown)
VH: EVQLVQSGAEVKKPGSSVKVSCKASGYTITDSNIHWVRQAPGQSLEWIGYIYPYNGGTDYNQKFKNRATLTVDNPTNTAYMELSSLRSEDTDFYYCVNGNPWLAYWGQGTLVTVSS
VL: DIQLTQSPSTLSASVGDRVTITCRASESLDNYGIRFLTWFQQKPGKAPKLLMYAASNHGSGVPSRFSGSGSGTEFTLTISSLQPDDFATYYCQQTKEVPWSFGQGTKVEVK
notes: IgG; gemtuzumab VL variant #20 (Q58H)
B8: MYT1620 (antibody, V domains shown)
VH: EVQLVQSGAEVKKPGSSVKVSCKASGYTITDSNIHWVRQAPGQSLEWIGYIYPYNGGTDYNQKFKNRATLTVDNPTNTAYMELSSLRSEDTDFYYCVNGNPWLAYWGQGTLVTVSS
VL: DIQLTQSPSTLSASVGDRVTITCRASESLDNYGIRFLTWFQQKPGKAPKLLMYAASNQGSGVPSRFSGSGSGTEFTLTISSLQPDDFATYYCQQTKEVPWHFGQGTKVEVK
notes: IgG; gemtuzumab VL variant #31 (S101H)
B9: MYT1619 (antibody, V domains shown)
VH: EVQLVQSGAEVKKPGSSVKVSCKASGYTITDSNIHWVRQAPGQSLEWIGYIYPYNGGTDYNQKFKNRATLTVDNPTNTAYMELSSLRSEDTDFYYCVNGNPWLAYWGQGTLVTVSS
VL: DIQLTQSPSTLSASVGDRVTITCRASESLDNYGIRFLTWFQQKPGKAPKLLMYAASNQGSGVPSRFSGSGSGTEFTLTISSLQPDDFATYYCQQTKEVPHSFGQGTKVEVK
notes: IgG; gemtuzumab VL variant #30 (W100H)
B10: MYT1612 (antibody, V domains shown)
VH: EVQLVQSGAEVKKPGSSVKVSCKASGYTITDSNIHWVRQAPGQSLEWIGYIYPYNGGTDYNQKFKNRATLTVDNPTNTAYMELSSLRSEDTDFYYCVNGNPWLAYWGQGTLVTVSS
VL: DIQLTQSPSTLSASVGDRVTITCRASESLDNYGIRFLTWFQQKPGKAPKLLMYAASNQGSGVPSRFSGSGSGTEFTLTISSLQPDDFATYYCHQTKEVPWSFGQGTKVEVK
notes: IgG; gemtuzumab VL variant #23 (Q93H)
B11: MYT1613 (antibody, V domains shown)
VH: EVQLVQSGAEVKKPGSSVKVSCKASGYTITDSNIHWVRQAPGQSLEWIGYIYPYNGGTDYNQKFKNRATLTVDNPTNTAYMELSSLRSEDTDFYYCVNGNPWLAYWGQGTLVTVSS
VL: DIQLTQSPSTLSASVGDRVTITCRASESLDNYGIRFLTWFQQKPGKAPKLLMYAASNQGSGVPSRFSGSGSGTEFTLTISSLQPDDFATYYCQHTKEVPWSFGQGTKVEVK
notes: IgG; gemtuzumab VL variant #24 (Q94H)
B12: MYT1615 (antibody, V domains shown)
VH: EVQLVQSGAEVKKPGSSVKVSCKASGYTITDSNIHWVRQAPGQSLEWIGYIYPYNGGTDYNQKFKNRATLTVDNPTNTAYMELSSLRSEDTDFYYCVNGNPWLAYWGQGTLVTVSS
VL: DIQLTQSPSTLSASVGDRVTITCRASESLDNYGIRFLTWFQQKPGKAPKLLMYAASNQGSGVPSRFSGSGSGTEFTLTISSLQPDDFATYYCQQTHEVPWSFGQGTKVEVK
notes: IgG; gemtuzumab VL variant #26 (K96H)
B13: MYT1616 (antibody, V domains shown)
VH: EVQLVQSGAEVKKPGSSVKVSCKASGYTITDSNIHWVRQAPGQSLEWIGYIYPYNGGTDYNQKFKNRATLTVDNPTNTAYMELSSLRSEDTDFYYCVNGNPWLAYWGQGTLVTVSS
VL: DIQLTQSPSTLSASVGDRVTITCRASESLDNYGIRFLTWFQQKPGKAPKLLMYAASNQGSGVPSRFSGSGSGTEFTLTISSLQPDDFATYYCQQTKHVPWSFGQGTKVEVK
notes: IgG; gemtuzumab VL variant #27 (E97H)
B14: MYT1608 (antibody, V domains shown)
VH: EVQLVQSGAEVKKPGSSVKVSCKASGYTITDSNIHWVRQAPGQSLEWIGYIYPYNGGTDYNQKFKNRATLTVDNPTNTAYMELSSLRSEDTDFYYCVNGNPWLAYWGQGTLVTVSS
VL: DIQLTQSPSTLSASVGDRVTITCRASESLDNYGIRFLTWFQQKPGKAPKLLMYAASHQGSGVPSRFSGSGSGTEFTLTISSLQPDDFATYYCQQTKEVPWSFGQGTKVEVK
notes: IgG; gemtuzumab VL variant #19 (N57H)
B15: MYT1610 (antibody, V domains shown)
VH: EVQLVQSGAEVKKPGSSVKVSCKASGYTITDSNIHWVRQAPGQSLEWIGYIYPYNGGTDYNQKFKNRATLTVDNPTNTAYMELSSLRSEDTDFYYCVNGNPWLAYWGQGTLVTVSS
VL: DIQLTQSPSTLSASVGDRVTITCRASESLDNYGIRFLTWFQQKPGKAPKLLMYAASNQHSGVPSRFSGSGSGTEFTLTISSLQPDDFATYYCQQTKEVPWSFGQGTKVEVK
notes: IgG; gemtuzumab VL variant #21 (G59H)
B16: MYT1611 (antibody, V domains shown)
VH: EVQLVQSGAEVKKPGSSVKVSCKASGYTITDSNIHWVRQAPGQSLEWIGYIYPYNGGTDYNQKFKNRATLTVDNPTNTAYMELSSLRSEDTDFYYCVNGNPWLAYWGQGTLVTVSS
VL: DIQLTQSPSTLSASVGDRVTITCRASESLDNYGIRFLTWFQQKPGKAPKLLMYAASNQGHGVPSRFSGSGSGTEFTLTISSLQPDDFATYYCQQTKEVPWSFGQGTKVEVK
notes: IgG; gemtuzumab VL variant #22 (S60H)
B17: MYT1213 (antibody, V domains shown)
VH: QVQLQQPGAEVVKPGASVKMSCKASHYTFTSYYIHWIKQTPGQGLEWVGVIYPGNDDISYNQKFQGKATLTADKSSTTAYMQLSSLTSEDSAVYYCAREVRLRYFDVWGQGTTVTVSS
VL: EIVLTQSPGSLAVSPGERVTMSCKSSQSVFFSSSQKNYLAWYQQIPGQSPRLLIYWASTRESGVPDRFTGSGSGTDFTLTISSVQPEDLAIYYCHQYLSSRTFGQGTKLEIK
notes: IgG; IMGN779 VH variant #1 (G26H)
B18: MYT1216 (antibody, V domains shown)
VH: QVQLQQPGAEVVKPGASVKMSCKASGYTHTSYYIHWIKQTPGQGLEWVGVIYPGNDDISYNQKFQGKATLTADKSSTTAYMQLSSLTSEDSAVYYCAREVRLRYFDVWGQGTTVTVSS
VL: EIVLTQSPGSLAVSPGERVTMSCKSSQSVFFSSSQKNYLAWYQQIPGQSPRLLIYWASTRESGVPDRFTGSGSGTDFTLTISSVQPEDLAIYYCHQYLSSRTFGQGTKLEIK
notes: IgG; IMGN779 VH variant #4 (F29H)
B19: MYT1217 (antibody, V domains shown)
VH: QVQLQQPGAEVVKPGASVKMSCKASGYTFHSYYIHWIKQTPGQGLEWVGVIYPGNDDISYNQKFQGKATLTADKSSTTAYMQLSSLTSEDSAVYYCAREVRLRYFDVWGQGTTVTVSS
VL: EIVLTQSPGSLAVSPGERVTMSCKSSQSVFFSSSQKNYLAWYQQIPGQSPRLLIYWASTRESGVPDRFTGSGSGTDFTLTISSVQPEDLAIYYCHQYLSSRTFGQGTKLEIK
notes: IgG; IMGN779 VH variant #5 (T30H)
B20: MYT1214 (antibody, V domains shown)
VH: QVQLQQPGAEVVKPGASVKMSCKASGHTFTSYYIHWIKQTPGQGLEWVGVIYPGNDDISYNQKFQGKATLTADKSSTTAYMQLSSLTSEDSAVYYCAREVRLRYFDVWGQGTTVTVSS
VL: EIVLTQSPGSLAVSPGERVTMSCKSSQSVFFSSSQKNYLAWYQQIPGQSPRLLIYWASTRESGVPDRFTGSGSGTDFTLTISSVQPEDLAIYYCHQYLSSRTFGQGTKLEIK
notes: IgG; IMGN779 VH variant #2 (Y27H)
B21: MYT1215 (antibody, V domains shown)
VH: QVQLQQPGAEVVKPGASVKMSCKASGYHFTSYYIHWIKQTPGQGLEWVGVIYPGNDDISYNQKFQGKATLTADKSSTTAYMQLSSLTSEDSAVYYCAREVRLRYFDVWGQGTTVTVSS
VL: EIVLTQSPGSLAVSPGERVTMSCKSSQSVFFSSSQKNYLAWYQQIPGQSPRLLIYWASTRESGVPDRFTGSGSGTDFTLTISSVQPEDLAIYYCHQYLSSRTFGQGTKLEIK
notes: IgG; IMGN779 VH variant #3 (T28H)

Each binder was assayed against CD33 (Sino Biological, Cat #12238-H08H) (UniProt P20138 18-259) (assay: BLI, IgG captured on anti-human Fc sensor, 50 nM CD33, pH 7.4 vs pH 5.4).
Chain of CD33 (Sino Biological, Cat #12238-H08H) (P20138 18-259 limits assumed): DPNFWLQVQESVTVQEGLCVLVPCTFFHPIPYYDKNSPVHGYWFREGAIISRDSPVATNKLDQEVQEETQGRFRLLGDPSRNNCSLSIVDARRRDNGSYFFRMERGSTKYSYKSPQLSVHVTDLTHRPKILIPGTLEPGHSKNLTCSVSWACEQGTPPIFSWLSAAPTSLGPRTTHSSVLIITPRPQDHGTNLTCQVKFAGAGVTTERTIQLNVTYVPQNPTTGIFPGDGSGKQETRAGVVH

Binding result, binds:
B1, B2, B3, B4, B5, B6, B7, B8, B9, B10, B11, B12, B13, B14, B15, B16, B17, B18, B19, B20, B21
